Data taken from patent US20250043319A1, “BIOSYNTHESIS OF CYCLOLAVANDULYL DERIVATIVES OF AROMATIC COMPOUNDS” (Invizyne Technologies, Inc., priority 2022, published 2025).

B1: NphBM31s: engineered soluble variant of prenyltransferase NphB from Streptomyces sp. CL190, SEQ ID NO: 6 (protein)
chain: MSEAADVERVYAAIEEAAGLLGVACARDKIWPLLSTFQDTLVEGGSVVVFSMASGRHSTELDFSISVPPSHGDPYAIVVEKGLFPATGHPVDDLLADIQKHLPVSMFAIDGEVTGGFKKTYAFFPTDNMPGVAELAAIPSMPPAVAENAELFARYGLDKVQMTSMDYKKRQVNLYFSELSAQTLEAESVLALVRELGLHVPNELGLKFCKRSFSVYPTLNWDTSKIDRLCFSVISTDPTLVPSSDEGDIEKFHNYATKAPYAYVGEKRTLVYGLTLSPKEEYYKLGAVYHITDVQRKLLKAFDSLED
modifications: Synthetic polymer
B2: NapT9: prenyltransferase, Accession: ABS50490.1, SEQ ID NO: 14 (protein, listed as Streptomyces sp.)
chain: MSGATGAEKLYSAIEESARMVDAPFSRDKVWPTLSAFEGGFSDAGGVILSLQAGTHVPEMEYSAQVSPGISDPYARALASGILTETDHPVSTVLAEIVSLAPTSEHYIDCGIVGGFKKIYANFPHDQQTVAALAGLPSMPRAVGGNAEFFARHGLDRVALIGVDYVNKTINLYFQVSAATAGNLDQKTVSAMLHETGMSEPSDAMVAYACQAYRIYTTLSWDAQEILRIAFAPKPRRGIDPADLPARLEPRIEKFLRATPHKYPGALINATAAKWSPEREVLDLAAHYQVSAVQMKAIEAEEGQAS
B3: MzPT1: prenyltransferase, Accession: WP_135330628.1, SEQ ID NO: 18 (protein, listed as Streptomyces sp.)
chain: MSRTAEVERVYSAIEEAAGLLSAVCSRDNVWPVLDAFGDELAEAMIVFGGQAGDRHAGELDYSFTVPSSIGNPYPHALSRGLVTETDHPVGSVLSDIQGRWPIKEHFVDAGVVGGFKKLYAHFPDNMQKVSDIADIPSMPRAVAENAALFARYGLDQVAMIGVDYRHKTVSVYFHFGPDGRPEPSTIRALLSDLGMPEPDEPTLEFAHKSLRVNITLGWETGDVIRVAFAPPPVRGLDPSALPGQLTPRMEEFARVSPRAYAGGRVNMYAVKWMRGEEFHEVCTYYQLTPWYEKILTDAPKEQQG
B4: AtaWTPT: prenyltransferase, Accession: AMB20850.1, SEQ ID NO: 17 (protein, listed as Aspergillus terreus)
chain: MLPPSDSKDPRPWQILSQALGFPNYDQELWWQNTAETLNRVLEQCDYSVHLQYKYLAFYHKYILPSLGPFRRPGVEPEYISGLSHGGHPLEISVKIDKSKTICRLGLQAIGPLAGTARDPLNSFGDRELLKNLATLLPHVDLRLFDHFNAQVGLDRAQCAVATTKLIKESHNIVCTSLDLKDGEVIPKVYFSTIPKGLVTETPLFDLTFAAIEQMEVYHKDAPLRTALSSLKDFLRPRVPTDASITPPLTGLIGVDCIDPMLSRLKVYLATFRMDLSLIRDYWTLGGLLTDAGTMKGLEMVETLAKTLKLGDEACETLDAERLPFGINYAMKPGTAELAPPQIYFPLLGINDGFIADALVEFFQYMGWEDQANRYKDELKAKFPNVDISQTKNVHRWLGVAYSETKGPSMNIYYDVVAGNVARV
B5: NphB: naturally occurring prenyltransferase from Streptomyces sp. CL190, Accession: 1ZB6_A, SEQ ID NO: 8 (protein, listed as Streptomyces sp.)
chain: MSEAADVERVYAAMEEAAGLLGVACARDKIYPLLSTFQDTLVEGGSVVVFSMASGRHSTELDFSISVPTSHGDPYATVVEKGLFPATGHPVDDLLADTQKHLPVSMFAIDGEVTGGFKKTYAFFPTDNMPGVAELSAIPSMPPAVAENAELFARYGLDKVQMTSMDYKKRQVNLYFSELSAQTLEAESVLALVRELGLHVPNELGLKFCKRSFSVYPTLNWETGKIDRLCFAVISNDPTLVPSSDEGDIEKFHNYATKAPYAYVGEKRTLVYGLTLSPKEEYYKLGAYYHITDVQRGLLKAFDSLED
B6: AbPT: prenyltransferase, Accession: KPI30840.1, SEQ ID NO: 9 (protein, listed as Actinomyces sp.)
chain: MSGKANIQRVYSAVEEAADLLDIACSREQMWPTLTAFEDVLTDGAIVFNMVTSGGRIGDLSFDFTLPPSAGDPYELALAHGLVDETDHPVRALFSDIQARFPLQAYGVDHGITSGFHKTYAFFPLGDLQSVAELADIPSMPSGLSEHVTSFAAYGLDDKVSAIAIDYARRTWNVYFNGLSAPHVQRTAVLSMLSEFGLPEPSAQLLEFIETSSALYPTFGWDSSKIERISFSTRTTDPVALPARIEPKLEKFARSAPHVYEGERVLVYAGALSPSEEYYKLATYYQMTAAAHDRVRSAN

Assay: cell-free cyclolavandulylation activity screening of prenyltransferases, summary over all tested substrates
Assay type: biochemical
Details: any of the tested substrates; cell-free biosynthesis reaction with CLDS from Streptomyces sp. CL190 and DMAPP
Source text: (§1) Genes encoding the following prenyltransferases were codon-optimized, synthesized, and cloned into the pET28a vector for protein expression and isolation/purification as described in Example 1. • NphB (Accession: 1ZB6_A) (SEQ ID NO: 8) • AbPT (Accession: KPI30840.1) (SEQ ID NO: 9) • SkPT (Accession: Q2L6E3.1) (SEQ ID NO: 10) • SvPT (Accession: WP_078899560.1) (SEQ ID NO: 11) • Sr1310PT (Accession: WP_057602682.1) (SEQ ID NO: 12) • NapT8 (Accession: ABS50461.1) (SEQ ID NO: 13) • NapT9 (Accession: ABS50490.1) (SEQ ID NO: 14) • Mcl23PT (Accession: AGH68908.1) (SEQ ID NO: 15) • CnqP3PT (Accession: WP_047018069.1) (SEQ ID NO: 16) • AtaWTPT (Accession: AMB20850.1) (SEQ ID NO: 17) • MzPT1 (Accession: WP_135330628.1) (SEQ ID NO: 18) • MzPT2 (Accession: WP_135330626.1) (SEQ ID NO: 19) B. Cell-Free Biosynthesis Reaction with CLPP and Various Aromatic Substrates
(§2) The cyclolavandulyl diphosphate synthase, CLDS was prepared as described in Example 1 and used in the synthesis of CLPP.
(§3) Stocks of the various aromatic compounds used as substrates for cyclolavandulylation activity screening were obtained from the following commercial sources: • Resveratrol (Fisher Scientific) 200 mM stock in DMSO • Luteolin (Fisher Scientific) 200 mM stock in DMSO • Naringenin (Fisher Scientific) 200 mM stock in DMSO • Tryptamine (Fisher Scientific) 200 mM stock in DMSO • Tryptophan (Fisher Scientific) 40 mM stock in water • Olivetolic acid (Toronto Research Chemicals) 200 mM stock in DMSO • Divarinic acid (Toronto Research Chemicals) 200 mM stock in DMSO • Phorolic acid (prepared in house) 200 mM stock in DMSO • Olivetol (Fisher Scientific) 200 mM stock in DMSO • Screening for cell-free biosynthesis was carried out as follows. 10 mM DMAPP, 5 mM MgCl2, 100 mM Tris-HCl (pH=8), and 4 mg/mL CLDS (SEQ ID NO: 4) were combined in a 6.80 mL reaction, which was incubated at 28° C. for 48 hours. This mixture was aliquoted into a 96-well plate (80 μL per well). The various prenyltransferases (18 μL, ˜1 g/L final concentration) listed above were screened across various substrates (2 μL of stock solution, variable concentration shown above), which were added to the wells and incubated at 28° C. for an additional 48 hours.
(§4) Analysis of the reaction mixture was carried out as follows: 50 μL of the reaction mixture were added to 1 mL MeOH. The resulting solution was vortexed, centrifuged at 17,200 g for 5 minutes, and transferred to an HPLC vial for analysis. HRMS-QTOF analyses of the cell free reactions was performed on an Agilent Technologies 6545 Accurate Mass QTOF LC/MS with a reverse-phase column (Agilent Infinity Lab Poroshell 120 ECC18, 2.7 μm, 3.0×50 mm) using positive ESI with 1% MeCN—H2O (0.1% FA) for 2 min followed by a linear gradient of 1-99% MeCN—H2O (0.1% FA) for 14 min with a flow rate of 0.4 mL/min.
(§5) Mass spectrometric (MS) analysis of chromatograms was carried out using MassHunter Qualitative Analysis 10.0. Targeted metabolomics using the exact m/z of the calculated proton adduct [H^+] in the presence and absence of prenyltransferase indicated the presence of cyclolavandulylated product.

Molecule | cyclolavandulylation activity with tested aromatic compounds (summary of Table 7)
B1 | produced a cyclolavandulylated aromatic compound
B2 | produced a cyclolavandulylated aromatic compound
B3 | produced a cyclolavandulylated aromatic compound
B4 | produced a cyclolavandulylated aromatic compound
B5 | produced a cyclolavandulylated aromatic compound
B6 | produced a cyclolavandulylated aromatic compound

Assay: cell-free cyclolavandulylation activity screening of prenyltransferases, substrate tryptamine
Assay type: biochemical
Details: cell-free reaction with CLDS and DMAPP (CLPP donor), 28° C., 48 hours, QTOF LC/MS, with vs without prenyltransferase
Source text: as §1, §2, §3, §4, §5

Molecule | presence of cyclolavandulylated product, Aromatic Compound (Substrate) Tryptamine
B1 | No
B2 | No
B3 | No
B4 | No
B5 | No
B6 | No

Assay: cell-free cyclolavandulylation activity screening of prenyltransferases, substrate resveratrol
Assay type: biochemical
Details: cell-free reaction with CLDS and DMAPP (CLPP donor), 28° C., 48 hours, QTOF LC/MS, with vs without prenyltransferase
Source text: as §1, §2, §3, §4, §5

Molecule | presence of cyclolavandulylated product, Aromatic Compound (Substrate) Resveratrol
B1 | Yes
B2 | No
B3 | No
B4 | Yes
B5 | No
B6 | No

Assay: cell-free cyclolavandulylation activity screening of prenyltransferases, substrate olivetol
Assay type: biochemical
Details: cell-free reaction with CLDS and DMAPP (CLPP donor), 28° C., 48 hours, QTOF LC/MS, with vs without prenyltransferase
Source text: as §1
(§6) The cyclolavandulyl diphosphate synthase, CLDS was prepared as described in Example 1 and used in the synthesis of CLPP. […]
as §5

Molecule | presence of cyclolavandulylated product, Aromatic Compound (Substrate) Olivetol
B1 | No

Assay: cell-free cyclolavandulylation activity screening of prenyltransferases, substrate olivetolic acid
Assay type: biochemical
Details: cell-free reaction with CLDS and DMAPP (CLPP donor), 28° C., 48 hours, QTOF LC/MS, with vs without prenyltransferase
Source text: as §1, §2, §3, §4, §5

Molecule | presence of cyclolavandulylated product, Aromatic Compound (Substrate) Olivetolic Acid
B1 | Yes
B2 | No
B3 | Yes
B4 | No
B5 | No
B6 | No

Assay: cell-free cyclolavandulylation activity screening of prenyltransferases, substrate luteolin
Assay type: biochemical
Details: cell-free reaction with CLDS and DMAPP (CLPP donor), 28° C., 48 hours, QTOF LC/MS, with vs without prenyltransferase
Source text: as §1, §2, §3, §4, §5

Molecule | presence of cyclolavandulylated product, Aromatic Compound (Substrate) Luteolin
B1 | No
B2 | Yes
B3 | No
B4 | No
B5 | No
B6 | No

Assay: cell-free cyclolavandulylation activity screening of prenyltransferases, substrate phorolic acid
Assay type: biochemical
Details: cell-free reaction with CLDS and DMAPP (CLPP donor), 28° C., 48 hours, QTOF LC/MS, with vs without prenyltransferase
Source text: as §1, §6, §5

Molecule | presence of cyclolavandulylated product, Aromatic Compound (Substrate) Phorolic Acid
B1 | No

Assay: cell-free cyclolavandulylation activity screening of prenyltransferases, substrate divarinic acid
Assay type: biochemical
Details: cell-free reaction with CLDS and DMAPP (CLPP donor), 28° C., 48 hours, QTOF LC/MS, with vs without prenyltransferase
Source text: as §1, §6, §5

Molecule | presence of cyclolavandulylated product, Aromatic Compound (Substrate) Divarinic Acid
B1 | Yes

Assay: cell-free cyclolavandulylation activity screening of prenyltransferases, substrate tryptophan
Assay type: biochemical
Details: cell-free reaction with CLDS and DMAPP (CLPP donor), 28° C., 48 hours, QTOF LC/MS, with vs without prenyltransferase
Source text: as §1, §2, §3, §4, §5

Molecule | presence of cyclolavandulylated product, Aromatic Compound (Substrate) Tryptophan
B1 | No
B2 | No
B3 | No
B4 | Yes
B5 | Yes
B6 | Yes

Assay: cell-free cyclolavandulylation activity screening of prenyltransferases, substrate naringenin
Assay type: biochemical
Details: cell-free reaction with CLDS and DMAPP (CLPP donor), 28° C., 48 hours, QTOF LC/MS, with vs without prenyltransferase
Source text: as §1, §2, §3, §4, §5

Molecule | presence of cyclolavandulylated product, Aromatic Compound (Substrate) Naringenin
B1 | No
B2 | No
B3 | No
B4 | Yes
B5 | Yes
B6 | No
